The values below come from US20250145691A1 (University of Texas, published 2025).

One test concerns the target RBD (SARS-CoV-2, UniProt P0DTC2 319-591). In words: ELISA and biolayer interferometry (BLI). (In general: An ELISA detects its analyte on a solid surface through an enzyme-linked reagent.)
In a further test the target is T1, NTD (UniProt P0DTC2 14-303).
T1 construct: domain: NTD; also called N-terminal domain
Briefly: ELISA and biolayer interferometry (BLI).

B1: antibody SC45 (antibody, V domains shown)
VH: QVQLQESGPGLVKSSETLSLTCTVSGGSISSYYWSWIRQPPGKGLEWIGCIYSSGSTNYNPSLKSRVTISVDSSKNQFSLRLNSVTAADTAVYYCARHKGTDFWSGYSFTPRGGWFDPWGQGALVSVSS
VL: DIQMTQSPSSLSASVGDRVTITCRASQSISSYLNWYQQKPGKAPKLLIYGASNLQSGVPSRFSGSGSETDFTLTISSLQPEDFASYYCQQSHSIPVTFGQGTKLEIK
In the case of B1, the binding result with RBD and in the test with NTD was “no binding” throughout.
